B1: OR4K15 (parent)
chain: GUUAACGGUCAUAGGCCAUGGAAACUAGGAGCACCAUUUCGCUGCCAGUGAAGAAAUGAACAAAGAAAAUCUGGGCCAGGCAGGCAUCAAAAGAAAUAGUCUUGCGCUCAACCAGAAAGUCUGUAAUCAUUUUAAGGGUA

Variants of: B1
Test: self-cleavage, relative activity (ratio to wild type); higher = more cleavage; in vitro, sequencing; the parent is a self-cleaving ribozyme

Variant | self-cleavage
A56G A67G | 0.97
A63G U97A | 1.94
A78G A89G | 0.18
A91G A111U | 0.03
U57C U100C | 1.83
U3C A30G | 0.92
U38G A47G | 1.78
U39A A69U | 0.83
U9C U19G | 2.03
A5G U43A | 1.49
A36U C128A | 1.18
C107A U133A | 0.02
C105A U108C | 0.01
C34U A90G | 0.74
C46A U97A | 1.43
A67U A129U | 1.14
U103A A116U | 0.2
U38C G41A | 1.95
A18U A67G | 1.53
A18U A66G | 1.5
A13G C17U | 1.46
A116G A134C | 0.7
A59G G93A | 1.61
G8A U102C | 2.44

Variant | self-cleavage
A5U U108C | 0.04
A22U A96U | 1.54
A24G A114G | 0.44
A18C A60G | 2.54
U87G A134G | 0.44
A33U A47G | 1.68
U9C A135U | 0.57
A54G A95G | 1.81
C35U A91G | 1.19
A23G C61U | 1.24
A82G U132A | 0.91
A90G A94G | 1.64
A4G U19A | 0.78
A4G A52U | 0.92
G50A A117G | 1.92
U19G A24G | 1.16
A23U A96G | 1.59
A52U U132C | 1.06
A64G A69G | 1.36
A13U A90U | 1.8
G73U A126G | 0.07
U100C A129C | 1.8
A94U U124C | 1.66
A27U U102C | 2.12

Variant | self-cleavage
A33C U124G | 1.02
A63U A96U | 2.14
A59U A62U | 1.44
A27U A68G | 1.61
A22U A69C | 0.47
A69G A82G | 0.48
G28A A110G | 0.17
A54G A110C | 0.2
U49G | 1.13
A18U A55U | 1.49
A52G C109U | 0.71
A24C U130C | 0.42
A18U A23G | 1.26
G44A U97C | 0.83
G48A U130C | 0.82
A66G A82U | 0.29
A92G U127A | 2.33
G83U A110G | 0.06
A86G A140U | 1.3
A78G U124C | 0.14
U3C A68C | 1.6
U124A U127C | 0.65
A27G A52C | 1.41
U43A U120A | 1.57

Variant | self-cleavage
A59G A78G | 0.26
A86C | 1.22
A91G A94G | 0.83
C6U A69G | 1.05
A116U A129U | 0.29
G20U U37C | 1.37
A91G A117U | 0.69
G41C A95G | 2.25
A98G U127A | 0.78
A36G A60G | 1.28
C46U U72C | 0.21
G44C U102C | 2.81
G7A G137U | 2.13
U43C U102C | 2.15
G48C | 1.46
A24U A116U | 0.51
A24G C109A | 0.3
A62U A110G | 0.14
A82G A89U | 0.51
A11C A125G | 0.5
A5G C128G | 0.8
A67G G75A | 0.11
U19A A90G | 0.53
U38C U127C | 0.66

Variant | self-cleavage
G28A A86U | 1.88
U3C U131C | 0.51
U19C G93U | 1.5
A64G U133G | 1.05
A96C U122A | 0.42
C40A A117G | 2.53
G15A A54G | 1.41
U49G A66G | 1.77
G14A A47G | 0.81
A52G U102C | 2.18
U9A A125G | 0.76
G7A A27G | 1.3
A22C U38C | 2.55
A5U A60G | 0.99
C45U A56C | 0.67
A51C U131C | 1.28
U38C A89U | 2.15
U3C A135G | 0.99
U38A G83U | 0.84
C113G | 0.01
A55G U97A | 1.51
A67U U120A | 2.17
A30G U139A | 1.46
G41U U130C | 1.59

Variant | self-cleavage
U57A C105U | 0.04
A18U A116G | 0.63
A64U A82G | 0.71
U3C A117U | 1.02
A56G A78G | 0.25
A11G A22G | 1.04
A67G U103C | 1.36
G14A A54U | 1.55
A96G U131G | 0.85
U87G U122C | 0.68
U103A A114U | 0.05
U26C A89G | 1.35
A118G A125U | 1.22
A66U A78G | 0.3
A23G A110U | 1.25
U87C A116U | 0.17
A23U A30G | 1.09
U2A A91G | 0.7
A33G A126G | 0.7
A69G A94G | 1.36
A47U A90G | 0.72
U9C A47U | 1.1
U57C C121U | 2.46
A13U U57C | 0.64

Variant | self-cleavage
U9C A68G | 1.51
A62G U133C | 1.14
A59G A89U | 0.98
A89U A114G | 0.49
A78G U139C | 0.24
C6G U132C | 0.79
A60G C113U | 0.09
G14C A18G | 1.59
A23G G136A | 1.39
A55U | 1.13
A22G A125G | 0.57
U2C A94U | 1.48
C77U U120C | 1.21
A56G A118G | 1.19
U72C A91G | 0.05
U72A U100G | 0.19
A30G A111G | 0.05
G53A C128A | 0.93
A23G A117G | 1.2
A68U C113A | 0.01
A86G A96U | 1.37
A23G A30G | 1.1
A52U A64G | 1.71
